Measurements: US20100119511A1 (Biogen, published 2010)

Experiments:
[1] = target: LTβR on human tumor cells (SKBR-3, HT29) (human, UniProt P36941 31-435); experiment: cell-based or functional assay
[2] = target: T1, HVEM-Ig (species not stated); experiment: ELISA (Table 2; species of HVEM not given)
T1 construct: also called HVEM-Fc
Procedure: (§1) Human and murine ErbB2-Fc were obtained from R&D Systems. Wells of 96-well plates were coated with 2 ug/ml or 0.2 ug/ml of human or murine HER2-Fc by incubation overnight at 4-8° C. with either of these six proteins (80 ul/well of a 0.2 or 2 ug/ml solution in PBS). Wells were emptied, filled completely with a solution of PBS with 1% BSA (blocking buffer) and incubated at room temperature for 1 hour. Wells were emptied, washed twice PBS containing 0.05% Tween 20 (PBST) and filled with the samples (80 ul/well of 3× dilution series of the standard and supernatants in blocking buffer) prepared in another 96-well plate. After a 2-hour incubation at room temperature, the wells were emptied, washed three times with PBST and filled with a solution of HRP-conjugated goat pAbs anti-human kappa chain (80 ul/well of a 2000-fold dilution in blocking buffer). After 1-hour incubation, the wells were emptied and filled with a solution of HRP substrate prepared freshly. The color was left to develop for 3 minutes and was stopped by addition of an equal volume of 1N H₂SO₄. Absorbance was measured at 450 nm using a Plate Reader (SpectraMax, Molecular Devices). The data was processed and graphs were created using SoftMax Pro software.
Human and murine HVEM-Ig were expressed and purified in house.

[3] = target: T2, HER2-Fc (species not stated); experiment: ELISA (Table 2; species of Her2 not given)
T2 construct: probably human
Procedure: as §1

[4] = target: T3, LTβR-Ig (species not stated); experiment: ELISA (Table 2; species of LTbR not given)
T3 construct: also called LTβR-human Fc fusion
T3 sequence (P36941 31-227): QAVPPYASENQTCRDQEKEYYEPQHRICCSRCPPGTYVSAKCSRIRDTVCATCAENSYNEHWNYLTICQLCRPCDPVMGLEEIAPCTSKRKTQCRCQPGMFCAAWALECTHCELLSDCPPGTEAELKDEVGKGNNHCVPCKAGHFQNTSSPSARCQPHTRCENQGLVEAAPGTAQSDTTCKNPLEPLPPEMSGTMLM
Procedure: as §1
Human and murine LTBR-Ig were expressed and purified in house.

[5] = target: T4, human HER2/ErbB2, full length, on cells (human, UniProt P04626 23-1255); experiment: FACS (Table 2; cells not given, Examples 14-16 use SKBR3 or CHO/hHER2)
T4 construct: whole, on cells; also called hHER2/ErbB2; wild type HER2/ErbB

[6] = target: T1, HVEM-Ig (species not stated); experiment: FACS (Table 2; format not given, Example 16 detects HVEM-Fc on cell-bound fusion)
[7] = target: T3, LTβR-Ig (species not stated); experiment: FACS (Table 2; format not given, Example 16 detects LTbR-Ig on cell-bound fusion)
[8] = target: T2, HER2-Fc (species not stated); experiment: biolayer interferometry (Octet), receptor Fc fusion on anti-human Fc sensor, culture supernatant
Procedure: (§2) Anti-human Fc-specific biosensors (Fortebio SKU 18-0001) were hydrated in OB (1×PBS supplemented with 1 mg/ml BSA, 0.05% NaN₃, and 0.02% TWEEN 20) for at least five minutes prior to assays. For each assay, the respective receptor Fc fusion was diluted to 10 μg/ml in OB and allowed to bind to the biosensors for five minutes. The sensors were then incubated in the indicated culture supernatant for an additional five minutes, and subsequently transferred to fresh wells […].

[9] = target: T3, LTβR-Ig (species not stated); experiment: as above
Procedure: as §2

[10] = target: T1, HVEM-Ig (species not stated); experiment: as above
Procedure: as §2

human HER2-Fc = target: T5, human HER2-Fc (human, UniProt P04626 23-652); experiment: ELISA on coated huHER2-Fc, detection anti-human kappa-HRP; value is C (midpoint) of the printed 4-P fit; x axis Fab equivalent concentration
T5 construct: extracellular domain; Homodimeric fusion protein from R&D Systems; also called human ErbB2-Fc; rhErbB2-Fc; not shown: Fc fragment of human IgG1

murine HER2-Fc = target: T6, murine HER2-Fc (mouse; human, UniProt P70424 23-653); experiment: ELISA on coated muHER2-Fc, detection anti-human kappa-HRP; value is C (midpoint) of the printed 4-P fit; x axis Fab equivalent concentration
T6 construct: extracellular domain; Homodimeric fusion protein from R&D Systems; also called murine ErbB2-Fc; not shown: Fc fragment of human IgG1
T6 sequence (P70424 23-653): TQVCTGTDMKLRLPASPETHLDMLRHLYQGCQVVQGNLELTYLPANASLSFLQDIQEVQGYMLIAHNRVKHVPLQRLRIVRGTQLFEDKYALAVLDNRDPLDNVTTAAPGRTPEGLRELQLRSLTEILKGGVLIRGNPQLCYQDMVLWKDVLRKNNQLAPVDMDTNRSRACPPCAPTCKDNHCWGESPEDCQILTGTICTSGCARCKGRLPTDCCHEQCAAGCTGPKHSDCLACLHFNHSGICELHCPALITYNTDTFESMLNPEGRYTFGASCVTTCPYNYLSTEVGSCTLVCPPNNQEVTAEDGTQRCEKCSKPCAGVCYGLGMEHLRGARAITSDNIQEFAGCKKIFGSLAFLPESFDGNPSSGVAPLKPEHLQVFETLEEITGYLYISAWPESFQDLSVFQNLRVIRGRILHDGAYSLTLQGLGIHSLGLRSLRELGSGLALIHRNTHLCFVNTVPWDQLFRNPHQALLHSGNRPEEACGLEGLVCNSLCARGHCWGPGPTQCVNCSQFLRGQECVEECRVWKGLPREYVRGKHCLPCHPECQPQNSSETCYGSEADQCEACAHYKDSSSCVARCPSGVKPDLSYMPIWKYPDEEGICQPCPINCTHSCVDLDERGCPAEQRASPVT

LTβR on human tumor cells (SKBR-3, HT29), sequence (P36941 31-435): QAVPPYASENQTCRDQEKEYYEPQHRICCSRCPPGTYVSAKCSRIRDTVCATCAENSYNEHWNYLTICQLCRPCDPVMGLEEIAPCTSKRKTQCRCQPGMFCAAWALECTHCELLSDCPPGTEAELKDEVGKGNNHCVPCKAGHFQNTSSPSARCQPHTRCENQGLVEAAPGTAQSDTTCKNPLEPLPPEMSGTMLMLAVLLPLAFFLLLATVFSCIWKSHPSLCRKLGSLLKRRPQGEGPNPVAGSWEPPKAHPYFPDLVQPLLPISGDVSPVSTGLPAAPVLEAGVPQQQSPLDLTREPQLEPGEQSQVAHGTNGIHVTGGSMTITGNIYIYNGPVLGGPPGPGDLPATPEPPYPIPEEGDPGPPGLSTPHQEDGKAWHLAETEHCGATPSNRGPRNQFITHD
T1 sequence (Q92956 39-202): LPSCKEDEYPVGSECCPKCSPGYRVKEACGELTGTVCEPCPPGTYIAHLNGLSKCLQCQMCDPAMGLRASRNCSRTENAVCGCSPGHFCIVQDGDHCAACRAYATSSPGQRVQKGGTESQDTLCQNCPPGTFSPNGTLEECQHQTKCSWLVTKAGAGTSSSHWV

B1: 71F10 Fab-hLIGHT fusion with the delta 4 linker (BIIB71F10-130) (other)
heavy: EVQLLESGGGLVQPGGSLRLSCAASGFTFSSYGMVWVRQAPGKGLEWVSSISSSGGLTWYADSVKGRFTISRDNSKNTLYLQMNSLRAEDTAVYYCASPPGIAVARDYWGQGTLVTVSSASTKGPSVFPLAPSSKSTSGGTAALGCLVKDYFPEPVTVSWNSGALTSGVHTFPAVLQSSGLYSLSSVVTVPSSSLGTQTYICNVNHKPSNTKVDKKVEPKSCDKLHWRLGEMVTRLPDGPAGSWQERRSHEVNPAAHLTGANSSLTGSGGPLLWETQLGLAFLRGLSYHDGALVVTKAGYYYIYSKVQLGGVGCPLGLASTITHGLYKRTPRYPEELELLVSQQSPCGRATSSSRVWWDSSFLGGVVHLEAGEEVVVRVLDERLVRLRDGTRSYFGAFMV
light: DIQMTQSPSSLSASVGDRVTITCRASQGISNYLAWYQQKPGKVPKLLIYAASTLQSGVPSRFSGSGSGTDFTLTISSLQPEDVATYYCQKYNSALLTFGGGTKVEIKRTVAAPSVFIFPPSDEQLKSGTASVVCLLNNFYPREAKVQWKVDNALQSGNSQESVTEQDSKDSTYSLSSTLTLSKADYEKHKVYACEVTHQGLSSPVTKSFNRGEC
modifications: Assembles as a trimer of heavy/light pairs; one pair is given.
notes: Fab heavy chain fused to human LIGHT extracellular portion; assembles as a trimer (66 kDa x3); also called pBIIB71F10-130; 71F10 Fab-Δ4huLIGHT
- CCL2 (MCP-1) transcript, fold difference test/control, HT29 cells, quantitative RT-PCR [1]: 1050 fold
- CCL5 (RANTES) transcript, fold difference test/control, HT29 cells, quantitative RT-PCR [1]: 1220 fold
- CCL7 (MCP-3) transcript, fold difference test/control, HT29 cells, quantitative RT-PCR [1]: -527 fold
- CCL21 transcript, fold difference test/control, HT29 cells, quantitative RT-PCR [1]: 546 fold
- CCR4 transcript, fold difference test/control, HT29 cells, quantitative RT-PCR [1]: 1650 fold
- CXCL2 transcript, fold difference test/control, HT29 cells, quantitative RT-PCR [1]: 1130 fold
- CXCL3 transcript, fold difference test/control, HT29 cells, quantitative RT-PCR [1]: 1090 fold
- CXCL5 (ENA-78/LIX) transcript, fold difference test/control, HT29 cells, quantitative RT-PCR [1]: 1810 fold
- CXCL9 transcript, fold difference test/control, HT29 cells, quantitative RT-PCR [1]: 675 fold
- CXCL10 (IP-10) transcript, fold difference test/control, HT29 cells, quantitative RT-PCR [1]: 5270 fold
- CXCL11 (I-TAC/IP9) transcript, fold difference test/control, HT29 cells, quantitative RT-PCR [1]: 1730 fold
- IFNA2 transcript, fold difference test/control, HT29 cells, quantitative RT-PCR [1]: 193 fold
- IL5 transcript, fold difference test/control, HT29 cells, quantitative RT-PCR [1]: 940 fold
- IL8 transcript, fold difference test/control, HT29 cells, quantitative RT-PCR [1]: 373 fold
- IL10RA transcript, fold difference test/control, HT29 cells, quantitative RT-PCR [1]: 3440 fold
- LTB transcript, fold difference test/control, HT29 cells, quantitative RT-PCR [1]: 2910 fold
- TNF transcript, fold difference test/control, HT29 cells, quantitative RT-PCR [1]: 7370 fold
- EC50 [2]: 0.01 nM
- EC50 [3]: 0.05 nM
- EC50 [4]: 0.01 nM
- EC50 [5]: 0.5 nM
- EC50 [6]: 0.5 nM
- EC50 [7]: 0.2 nM
- koff [8]: 0.000112 s⁻¹
- koff [9]: 0.000168 s⁻¹
- koff [10]: 0.000122 s⁻¹
- EC50 (human HER2-Fc): 9.55 ng/mL
- EC50 (murine HER2-Fc): 0.0114 µg/mL
